# B1: Receptor protein kinase CLAVATA1 (Arabidopsis thaliana (Mouse-ear cress)), Q9SYQ8 (parent)
# chain: MAMRLLKTHLLFLHLYLFFSPCFAYTDMEVLLNLKSSMIGPKGHGLHDWIHSSSPDAHCSFSGVSCDDDARVISLNVSFTPLFGTISPEIGMLTHLVNLTLAANNFTGELPLEMKSLTSLKVLNISNNGNLTGTFPGEILKAMVDLEVLDTYNNNFNGKLPPEMSELKKLKYLSFGGNFFSGEIPESYGDIQSLEYLGLNGAGLSGKSPAFLSRLKNLREMYIGYYNSYTGGVPPEFGGLTKLEILDMASCTLTGEIPTSLSNLKHLHTLFLHINNLTGHIPPELSGLVSLKSLDLSINQLTGEIPQSFINLGNITLINLFRNNLYGQIPEAIGELPKLEVFEVWENNFTLQLPANLGRNGNLIKLDVSDNHLTGLIPKDLCRGEKLEMLILSNNFFFGPIPEELGKCKSLTKIRIVKNLLNGTVPAGLFNLPLVTIIELTDNFFSGELPVTMSGDVLDQIYLSNNWFSGEIPPAIGNFPNLQTLFLDRNRFRGNIPREIFELKHLSRINTSANNITGGIPDSISRCSTLISVDLSRNRINGEIPKGINNVKNLGTLNISGNQLTGSIPTGIGNMTSLTTLDLSFNDLSGRVPLGGQFLVFNETSFAGNTYLCLPHRVSCPTRPGQTSDHNHTALFSPSRIVITVIAAITGLILISVAIRQMNKKKNQKSLAWKLTAFQKLDFKSEDVLECLKEENIIGKGGAGIVYRGSMPNNVDVAIKRLVGRGTGRSDHGFTAEIQTLGRIRHRHIVRLLGYVANKDTNLLLYEYMPNGSLGELLHGSKGGHLQWETRHRVAVEAAKGLCYLHHDCSPLILHRDVKSNNILLDSDFEAHVADFGLAKFLVDGAASECMSSIAGSYGYIAPEYAYTLKVDEKSDVYSFGVVLLELIAGKKPVGEFGEGVDIVRWVRNTEEEITQPSDAAIVVAIVDPRLTGYPLTSVIHVFKIAMMCVEEEAAARPTMREVVHMLTNPPKSVANLIAF
# partner: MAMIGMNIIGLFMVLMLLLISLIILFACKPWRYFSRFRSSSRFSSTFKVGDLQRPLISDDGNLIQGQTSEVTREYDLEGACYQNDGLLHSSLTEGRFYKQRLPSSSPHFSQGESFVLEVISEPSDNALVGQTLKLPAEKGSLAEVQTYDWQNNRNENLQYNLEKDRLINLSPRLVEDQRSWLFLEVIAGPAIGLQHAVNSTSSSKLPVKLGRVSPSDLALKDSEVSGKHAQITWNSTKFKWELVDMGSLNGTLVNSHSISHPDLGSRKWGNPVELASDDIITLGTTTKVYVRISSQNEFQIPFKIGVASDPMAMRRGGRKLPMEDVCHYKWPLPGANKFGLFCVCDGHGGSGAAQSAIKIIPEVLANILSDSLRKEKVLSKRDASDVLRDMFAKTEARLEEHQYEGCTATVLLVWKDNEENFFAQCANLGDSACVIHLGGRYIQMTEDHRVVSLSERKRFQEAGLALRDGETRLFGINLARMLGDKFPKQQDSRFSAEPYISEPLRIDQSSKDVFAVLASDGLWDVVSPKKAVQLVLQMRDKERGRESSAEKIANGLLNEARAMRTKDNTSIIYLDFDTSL
# Variants of: B1
# Details: with KAPP
row,Variant,effect of a mutation on the interaction
1,K720E,disrupting interaction
2,G856D,disrupting interaction

# Variants of: B1
# Details: with KAPP
# Remark: another data set of the same source
row,Variant,effect of a mutation on the interaction
1,G856D,decreasing interaction

# — IntAct's records for PubMed 9294234
